In PMC5343618:

Target: T1, alkaline phosphatase D (PhoD) with a C-terminal 6-His tag (PhoD-H) (B. subtilis 168), P42251
T1 chain: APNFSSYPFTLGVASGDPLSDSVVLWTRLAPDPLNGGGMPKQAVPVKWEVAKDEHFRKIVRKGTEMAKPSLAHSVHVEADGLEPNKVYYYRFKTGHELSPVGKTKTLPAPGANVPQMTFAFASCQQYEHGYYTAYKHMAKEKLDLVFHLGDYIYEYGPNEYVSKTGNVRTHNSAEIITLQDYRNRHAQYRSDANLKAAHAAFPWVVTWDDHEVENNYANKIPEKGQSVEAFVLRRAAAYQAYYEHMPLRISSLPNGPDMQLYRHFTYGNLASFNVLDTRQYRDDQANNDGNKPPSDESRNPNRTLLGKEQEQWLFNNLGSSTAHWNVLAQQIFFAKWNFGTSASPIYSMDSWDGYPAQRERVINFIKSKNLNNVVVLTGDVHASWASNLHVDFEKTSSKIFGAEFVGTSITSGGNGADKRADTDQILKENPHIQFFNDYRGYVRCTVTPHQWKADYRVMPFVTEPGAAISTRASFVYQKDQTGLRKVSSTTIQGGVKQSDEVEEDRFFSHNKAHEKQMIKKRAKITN
Assay: cross-linking; in vivo cross-linking of B. subtilis cells with 0.5 mM DSS in PBS pH 8.3, 20 min at 37 °C; cells recovered 1 h in fresh medium; 10% SDS-PAGE with β-mercaptoethanol and anti-His immunoblot of cell and supernatant fractions
Conditions: remark: other sources report otherwise

stoichiometry N: 2
B1: alkaline phosphatase D (PhoD) with a C-terminal 6-His tag (PhoD-H), P42251 57-583 (enzyme)
chain: T1 chain
